{"source": "paper PMC10779054", "binders": {"B1": {"name": "44/70 aptamer (ssDNA)", "DNA": "CCTTGAACCTGTGCCATTTGCTAATTGAGACTATTATGGGCTTTTTAGTCGAACAGTAGGAAGATGGAGG"}, "B2": {"name": "NC aptamer (ssDNA)", "DNA": "GCAATGGTACGGTACTTCCGGATGCGGAAACTGGCTAATTGGTGAGGCTGGGGCGGTCGTGCAGCAAAAGTGCACGCTACTTTGCTAA"}}, "key": {"Taq DNA polymerase": {"target": "Taq DNA polymerase (Thermus aquaticus, UniProt P19821 1-832)", "assay": "qPCR of aptamer bound to immobilized protein; 50 nM aptamer; 0.5 ug Taq/well; 0.1% methylcellulose, BSA or Tween 20 block; PBS + 0.1% Tween 20 (PBST); 1 h at 21 C (44/70-Taq) or 37 C (NC aptamer-nucleocapsid); wells blocked with 0.1% BSA, Tween 20 or methylcellulose; PBST washes", "settings": "protein: commercial"}, "[1]": {"target": "SARS-CoV-2 nucleocapsid protein (SARS-CoV-2, UniProt P0DTC9 1-419)", "assay": "aptamer-immuno-PCR (mAb sandwich, qPCR); PBS + 0.1% Tween 20 (PBST); 1 h at 21 C ([…]) or 37 C ([…]", "settings": "protein: commercial; chain copies: 2"}}, "data": [{"binder": "B1", "values": [{"measurement": "binding result", "setting": "Taq DNA polymerase", "result": "binds"}]}, {"binder": "B2", "values": [{"measurement": "binding result", "setting": "[1]", "result": "binds"}]}]}
